Measured values reported in article PMC9744743, “Introducing or removing heparan sulfate binding sites does not alter brain uptake of the blood–brain barrier shuttle scFv8D3” (Scientific Reports, 2022).

Biological target: T1, recombinant mouse TfR extracellular domain protein (Mus musculus, UniProt Q62351)
T1 construct: transferrin receptor (TfR), mouse, extracellular domain; also called transferrin receptor; source: recombinant, prepared in our lab
Test: ELISA; indirect ELISA; half-area plates coated with 50 ng/well recombinant mouse TfR extracellular domain in PBS overnight at 4 °C, blocked with 1% BSA; serial dilutions of scFvs 2 h at RT in PBS with 0.1% BSA and 0.05% Tween-20; detected by mouse anti-Strep-Tag II and HRP goat anti-mouse
Conditions: both partners purified

T1 sequence (Q62351 89-763): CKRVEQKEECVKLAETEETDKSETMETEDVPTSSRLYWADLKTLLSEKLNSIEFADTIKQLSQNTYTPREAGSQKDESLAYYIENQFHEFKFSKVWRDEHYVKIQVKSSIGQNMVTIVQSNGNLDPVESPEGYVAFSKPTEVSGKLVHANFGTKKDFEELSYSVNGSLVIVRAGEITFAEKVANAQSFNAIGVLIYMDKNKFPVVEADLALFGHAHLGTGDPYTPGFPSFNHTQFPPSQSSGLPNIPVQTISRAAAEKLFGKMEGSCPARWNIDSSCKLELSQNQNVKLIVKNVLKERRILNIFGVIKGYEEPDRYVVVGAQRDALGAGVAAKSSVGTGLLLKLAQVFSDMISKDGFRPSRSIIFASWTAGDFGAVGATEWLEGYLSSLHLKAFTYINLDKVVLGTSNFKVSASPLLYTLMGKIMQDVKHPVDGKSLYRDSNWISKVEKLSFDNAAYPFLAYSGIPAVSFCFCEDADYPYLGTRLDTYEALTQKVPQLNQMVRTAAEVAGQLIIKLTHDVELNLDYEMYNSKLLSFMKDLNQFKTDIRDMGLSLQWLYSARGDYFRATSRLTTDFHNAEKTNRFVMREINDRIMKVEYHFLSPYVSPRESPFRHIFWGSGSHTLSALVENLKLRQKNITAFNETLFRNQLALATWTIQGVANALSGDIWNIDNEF

Row | binding result | Binder
1 | binds | HS(−)scFv8D3 mutant (K42Q_K43Q and K243Q_R244Q) (scFv, V domains shown, as the heavy chain variable domain of m1 with the stated changes; numbers count on: the whole scFv8D3 chain; linker, printed as SGSTS (G4S)3; as the light chain variable domain of m1 with the stated changes; Same tag, linkers and signal peptide as m1; also called HS minus mutant; source: Expi293 cells, transfected, purified from supernatant (Strep-Tactin XT)) VH: EVQLVESGGGLVQPGNSLTLSCVASGFTFSNYGMHWIRQAPQQGLEWIAMIYYDSSKMNYADTVKGRFTISRDNSKNTLYLEMNSLRSEDTAMYYCAVPTSHYVVDVWGQGVSVTVSS VL: DIQMTQSPASLSASLEEIVTITCQASQDIGNWLAWYQQKPGKSPQLLIYGATSLADGVPSRFSGSRSGTQFSLKISRVQVEDIGIYYCLQAYNTPWTFGGGTKLELQ
2 | binds | HS(+)scFv8D3 mutant (S75K and P176K) (scFv, V domains shown, as the heavy chain variable domain of m1 with the stated change; numbers count on: the whole scFv8D3 chain; linker, printed as SGSTS (G4S)3; as the light chain variable domain of m1 with the stated change; Same tag, linkers and signal peptide as m1; That S75 lies in the first domain and P176 in the second is worked out from the residue numbers; also called HS plus mutant; source: Expi293 cells, …) VH: EVQLVESGGGLVQPGNSLTLSCVASGFTFSNYGMHWIRQAPKKGLEWIAMIYYDSSKMNYADTVKGRFTISRDNKKNTLYLEMNSLRSEDTAMYYCAVPTSHYVVDVWGQGVSVTVSS VL: DIQMTQSPASLSASLEEIVTITCQASQDIGNWLAWYQQKKGKSPQLLIYGATSLADGVPSRFSGSRSGTQFSLKISRVQVEDIGIYYCLQAYNTPWTFGGGTKLELK
